Measured values as given in PMC8212047.

Key:
Assay in all cases: SPR
CB6 (human) = target: CB6 (human)
RGN10933 (human) = target: RGN10933 (human)
RGN10987 (human) = target: RGN10987 (human)

Measured: binding relative to WT RBD

RGN10933 (human), sequence (heavy, as listed by the source, chain 1 of 2): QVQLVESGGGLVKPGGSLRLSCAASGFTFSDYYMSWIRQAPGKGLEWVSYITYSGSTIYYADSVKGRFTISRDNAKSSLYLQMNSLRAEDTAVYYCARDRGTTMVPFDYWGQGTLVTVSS
RGN10933 (human), sequence (light, as listed by the source, chain 2 of 2): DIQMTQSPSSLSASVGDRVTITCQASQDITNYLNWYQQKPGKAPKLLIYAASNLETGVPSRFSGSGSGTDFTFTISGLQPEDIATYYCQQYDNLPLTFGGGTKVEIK
RGN10987 (human), sequence (heavy, as listed by the source, chain 1 of 2): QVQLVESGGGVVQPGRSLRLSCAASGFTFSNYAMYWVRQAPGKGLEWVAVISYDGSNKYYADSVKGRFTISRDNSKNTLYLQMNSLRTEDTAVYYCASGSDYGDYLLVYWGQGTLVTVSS
RGN10987 (human), sequence (light, as listed by the source, chain 2 of 2): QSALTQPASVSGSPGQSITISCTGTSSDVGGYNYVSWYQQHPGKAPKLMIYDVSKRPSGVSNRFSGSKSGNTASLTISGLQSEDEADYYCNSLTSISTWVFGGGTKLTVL

RBD A475V-FC fusion protein (from UniProt P0DTC2)
> 50%: all assays above

RBD T345I-FC fusion protein (from UniProt P0DTC2)
> 50%: all assays above

RBD Y505W-FC fusion protein (from UniProt P0DTC2)
> 50%: all assays above
